Here are results for twelve molecules from US20250270343A1 (Alector, published 2025).

Where a chain is given by its changes, count along the chain named.

To fix the notation:
B1: anti-GPNMB antibody GPN-11 (antibody, human IgG1, V domains shown)
VH: QVQLQQPGAELVKPGASVKLSCKASGYTFTSYWMHWVKQRPGQGLEWIGEINSSNGRTNYNEKFKTKATLTVDRSSSTAYMQLSSLTSEDSAVYYCARLGYYSGSPYPYYAMDCWGQGTSVTVSS
VL: DIQMTQSPASLSVSVGETVTITCRASENIYSNLAWYQQKQGKSPQLLVYAATNLADGVPSRFSGSGSGTQYSLKINSLQSEDFGSYYCQHFWNTPPTFGGGTKLEIK
notes: chimeric
B2: anti-GPNMB antibody GPN-24 (antibody, human IgG1, V domains shown)
VH: QVQLQQPGAELVKPGASVKMSCKASGYTFTSYWITWVKQRPGQGLEWIGDIHPGSGRSNYNEKFKNKATLNVDTSSSTVYMQLSSLTSEDSAVYYCARDYLFAYWGQGTLVTVSA
VL: DIQMTQSPSSLSASLGERVSLTCRASQEISGYLSWLQQKPDGTIKRLIYSTSTLDSGVPKRFSGSRSGSDYSLTISSLESEDFADYYCLQYTSSPPTFGGGTKLEIK
notes: chimeric
B3: anti-GPNMB antibody GPN-22 (antibody, human IgG1, V domains shown)
VH: QVQLQQPGAERVKPGASVKMSCKASGYTFTSYWITWVKQRPGQGLEWIGDIFPGSGSTNYHEKFKSKATLTVDTSSSTAYMQLSSLTSEDSAVYYCSRGYFGSSFSDYWGQGTSVTVSS
VL: B2 VL with A25T, T92A, G100S
notes: chimeric
B4: anti-GPNMB antibody GPN-07 (antibody, human IgG1, V domains shown)
VH: QVQLQQSGAEQVKPGASVKLSCKASGYTFTSYYMYWVKQRPGQGLEWIGEINPSNGGTYFNEKFKSKATLTVDKSSSTAYMHLSSLTSEDSAVYYCTRGGTYYAYWGQGTLVTVSA
VL: B2 VL with I29M, Y32H, S50A, T51A, T92A, S94Y, P96Y
notes: chimeric
B5: anti-GPNMB antibody GPN-26 (antibody, human IgG1, V domains shown)
VH: EVQLQQSGPELVKPGASVKISCKASGYSFTGYYMNWVRQSPEKSLEWIGEINPSTGITTYNQKFKAKATLTVDKSSNTAFMQLKSLTSEDSAVYYCARPASWFDYWGQGTLVTVSA
VL: B2 VL with Y32H, S50A, T51A, T92A, S94Y, P96Y
notes: chimeric
B6: anti-GPNMB antibody GPN-30 (antibody, human IgG1, V domains shown)
VH: EVQLQQSGPELVNPGASVRISCKASGYSFTGYYMNWVKQSPEKSLEWIGEINPNTGFTTYNQNFKAKATLTVDKSSSTAYIQLKSLTSEDSAVYYCTRPSPSFDYWGQGTTLTVSS
VL: B2 VL with V19G, Y32H, S50A, T51A, T92A, S94Y, P96Y
notes: chimeric
B7: anti-GPNMB antibody GPN-25 (antibody, human IgG1, V domains shown)
VH: B5 VH with R38K, S54G, T55S, N77S, F80Y, M81L, D104A
VL: B2 VL with L21F, T22I, Y32H, S50A, T51A, T92A, S94Y, P96Y
notes: chimeric
B8: anti-GPNMB antibody GPN-09 (antibody, human IgG1, V domains shown)
VH: B4 VH with Q11L, M34I, S66N, H82Q, T101N
VL: B2 VL with Y32H, S34G, S50A, T51A, S52L, T92A, S94Y, P96Y
notes: chimeric
B9: anti-GPNMB antibody GPN-31 (antibody, human IgG1, V domains shown)
VH: B5 VH with R38K, S44N, S54N, I57G, N77T, F80Y, A97T
VL: B2 VL with Y32H, S50A, T51A, S65R, T92A, S94Y, P96Y, E105A
notes: chimeric
B10: anti-GPNMB antibody GPN-01 (antibody, human IgG1, V domains shown)
VH: QVQLQQSGAELAKPGASVKLSCKASGYNFTNYCIHWVKQRPGQGLEWIGYINPSTGYTEYNQKFKDKATLTADKSSTTAYMQLSSLTSEDSAVYYCARGRYDEFTYWGQGTLVTVSA
VL: DIVLTQSPASLAVSLGQRATISCRASKSVSTSTYSYMHWYQQKPGQPPKLLIYLASNLESGVPARFSGSGSGTDFTLNIHPVEEEDAATYYCQHSRELPPTFGGGTKLEIK
notes: chimeric
B11: anti-GPNMB antibody GPN-43 (antibody, human IgG1, V domains shown)
VH: EVQLQQSGPELVKPGASVKISCKASGYTFTDYYMNWVRQSHGKSLEWIGDINPYHGGSTYNQKIKVKATLTVDKSSSTAYMELRSLTSEDSAVYYCARNWPYFDYWGQGTTLTVSS
VL: DIQMTQSPASLSASVGETVTITCRASENIYSFLVWYQQKQGKSPQLLVYNAKTLAEGVPSRFSGSGSGTQFSLKISSLQPEDFGSYYCQHHFGTPPYTFGGGTKLEIK
notes: chimeric
B12: anti-GPNMB antibody GPN-42 (antibody, human IgG1, V domains shown)
VH: DVKLVESGEDLVKPGGSLKLSCAASGFTFSSYAMSWVRQTPEKRLEWVAYISSGGDYIYYADTVKGRFTISRDNARNTLYLQMSSLKSEDTAMYYCTRDRYYDYDVRDYYTMDYWGQGTSVTVSS
VL: DVMMTQTPLSLPVSLGDQASISCRSSQSLVHSNGNTYLHWFLQKPGQSPKLLIFRVSNRFSGVPDRFSGRGSGTDFTLKISRVEAEDLGVYFCSQTTHVPRTFGGGTTLEIK
notes: chimeric

One experiment concerns the target T1, full-length untagged human GPNMB expressed on cells (human, UniProt Q14956 23-572).
T1 construct: also used here for GPNMB on human monocyte-derived macrophages in the functional assays; also called huGPNMB; Freestyle293-huGPNMB+
T1 sequence: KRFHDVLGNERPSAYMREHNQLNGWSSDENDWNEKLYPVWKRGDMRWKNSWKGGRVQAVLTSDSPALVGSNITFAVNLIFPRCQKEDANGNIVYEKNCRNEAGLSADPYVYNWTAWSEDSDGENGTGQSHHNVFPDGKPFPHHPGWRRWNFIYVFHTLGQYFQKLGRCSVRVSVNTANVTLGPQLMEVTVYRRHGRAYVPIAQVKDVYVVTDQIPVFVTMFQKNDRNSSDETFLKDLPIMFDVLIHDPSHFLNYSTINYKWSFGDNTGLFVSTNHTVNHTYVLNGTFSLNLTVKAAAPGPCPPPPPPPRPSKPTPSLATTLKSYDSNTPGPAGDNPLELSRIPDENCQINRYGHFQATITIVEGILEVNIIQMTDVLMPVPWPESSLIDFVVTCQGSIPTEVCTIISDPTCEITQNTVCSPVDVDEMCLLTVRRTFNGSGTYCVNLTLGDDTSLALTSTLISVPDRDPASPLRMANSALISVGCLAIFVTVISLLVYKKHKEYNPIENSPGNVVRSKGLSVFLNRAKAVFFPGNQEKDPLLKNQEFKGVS
The experiment can be described thus: FACS, FS293-huGPNMB+ cells. On the procedure: Recombinant anti-GPNMB antibodies of the present disclosure were examined for their ability to bind human and/or mouse GPNMB expressed on Freestyle293-huGPNMB+ or B16F10 cells, respectively. B16F10 cells are a murine melanoma cell line from a C57BL/6J mouse that endogenously express high levels of mouse GPNMB. The antibodies were also tested for their ability to bind to a human macrophage cell line (U937 cells) engineered to express human GPNMB. Cells were harvested, plated at 100,000 cells/well in a 96-well round bottom plate, and incubated in 100 μl FACS buffer (PBS containing 2% FBS, 2 mM EDTA) containing anti-GPNMB monoclonal antibodies of the present disclosure for 30 minutes on ice. Cells were then washed and incubated in 100 ul FACS buffer containing 1 μg/ml APC-conjugated anti-human IgG secondary antibody for 30 minutes in ice. Cells were washed twice in cold FACS buffer and acquired on a BD FACS Canto. Data analysis and calculation of MFI values was performed with FlowJo (TreeStar) software version 10.0.7.
Importantly, several anti-GPNMB antibodies of the present disclosure also bound to the human macrophage cell line U937 cells engineered to express human GPNMB (U937/huGPNMB+) (FIG. 2C). In FIG. 2C, the first data point in each pair corresponds to U937/huGPNMB+ cells, and the second data point in each pair corresponds to U937/huGPNMB− cells. No anti-GPNMB antibodies bound to U937 cells deficient in human GPNMB expression (U937/huGPNMB−).
Turning to B1, the “MFI fold over background” value is 56.2 fold.
Still for that read-out and setting: in the case of B2 it was 59.9 fold; in that of B3, 44.8 fold; in that of B4, 66.5 fold.
Turning to B5, the “MFI fold over background” value was found to be 46.3 fold.
As to B6, the “MFI fold over background” value was 34.4 fold.
As for B7, the “MFI fold over background” value is 42.7 fold.
As to B8, the “MFI fold over background” value is 35.1 fold.
Regarding B9, the “MFI fold over background” value stood at 53.8 fold.
B10: the “MFI fold over background” value was 43.2 fold.

Another experiment concerns the target T2, soluble human GPNMB (recombinant extracellular domain) (human, UniProt Q14956 23-498).
T2 construct: also called huGPNMB; recombinant human GPNMB extracellular domain; not shown: C-terminal polyhistidine or Avi-His tag
T2 sequence: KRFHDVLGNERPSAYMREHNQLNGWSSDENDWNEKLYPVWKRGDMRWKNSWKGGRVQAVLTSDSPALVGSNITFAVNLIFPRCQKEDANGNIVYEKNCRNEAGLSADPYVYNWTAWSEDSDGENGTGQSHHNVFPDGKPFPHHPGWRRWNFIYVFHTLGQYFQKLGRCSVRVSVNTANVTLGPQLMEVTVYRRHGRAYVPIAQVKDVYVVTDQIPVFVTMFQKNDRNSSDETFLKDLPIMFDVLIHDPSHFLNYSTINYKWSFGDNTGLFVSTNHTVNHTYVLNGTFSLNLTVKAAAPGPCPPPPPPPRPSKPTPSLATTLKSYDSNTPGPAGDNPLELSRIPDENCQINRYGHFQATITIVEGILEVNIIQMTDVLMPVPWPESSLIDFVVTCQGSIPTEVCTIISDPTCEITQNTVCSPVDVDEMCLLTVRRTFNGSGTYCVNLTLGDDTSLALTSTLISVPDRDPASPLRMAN
Description: SPR Carterra, Ab immobilized. Here is the method:
Binding kinetics of human anti-GPNMB IgG1 antibodies of the present disclosure to human, cynomolgus, and mouse GPNMB were evaluated using a Carterra LSA instrument (Carterra, Salt Lake City, UT). […] A HC200M sensor chip (Carterra) was activated using the single channel flow cell with a 7-minute injection of a 1:1:1 mixture of 100 mM MES pH 5.5, 100 mM sulfo-NHS, 400 mM EDC (all reconstituted in MES pH 5.5; 100 μl of each mixed in vial immediately before running assay). After switching to the multi-channel array flow cell, the antibodies were injected over the activated chip in a 96-spot array for 15 minutes. The remaining unconjugated active groups on the chip were then blocked by injecting 1M Ethanolamine pH 8.5 (Carterra) for 7 minutes using the single channel flow cell.
After priming with running buffer (HBS-EP+, Teknova) with 0.5 mg/ml BSA (Sigma), the immobilized anti-GPNMB antibodies were tested for their ability to bind to several forms of recombinant GPNMB extracellular domain, including human, cynomolgus, and mouse orthologs as described above. Estimates of affinity were generated by injecting each analyte over the entire antibody array using the single channel flow cell. GPNMB analytes were diluted to 2.5, 7.4, 22, 67, 200, and 600 nM in running buffer, and injected in serial from lowest to highest concentration without regeneration. Two buffer blanks were run between each series (one species per series). Data were processed and analyzed using Kinetics high-throughput kinetics analysis software (Carterra).
Take B1: the dissociation constant (Kd) came out at 14.4 nM, the koff was 0.00095 s⁻¹ and the on-rate (kon) was found to be 69000 M⁻¹ s⁻¹.
As to B2, the equilibrium dissociation constant (Kd) was 8.8 nM, the off-rate constant (koff) is 0.00057 s⁻¹ and the association rate constant (kon) came out at 69000 M⁻¹ s⁻¹.
B3: the Kd came out at 120 nM, the koff is 0.0034 s⁻¹ and the kon was determined as 28000 M⁻¹ s⁻¹.
Taken in the same sequence, the figures for B4 were 16.6 nM, 0.00029 s⁻¹ and 19000 M⁻¹ s⁻¹.
Taken in the same sequence, the figures for B5 were 11.1 nM, 0.00027 s⁻¹ and 27000 M⁻¹ s⁻¹.
Taken in the same sequence, the figures for B6 were 5 nM, 0.00012 s⁻¹ and 26000 M⁻¹ s⁻¹.
Turning to B7, the Kd was determined as 11.4 nM, the off-rate (koff) was 0.00028 s⁻¹ and the kon came to 26000 M⁻¹ s⁻¹.
In the case of B8, the Kd is 9 nM, the koff worked out at 0.00011 s⁻¹ and the association rate constant (kon) stood at 12000 M⁻¹ s⁻¹.
In the case of B9, the Kd is 11.7 nM, the off-rate (koff) was 0.00028 s⁻¹ and the kon amounted to 26000 M⁻¹ s⁻¹.
With B11, the Kd came out at 111 nM, the koff was found to be 0.002 s⁻¹ and the on-rate constant (kon) worked out at 18000 M⁻¹ s⁻¹.
Taken in the same sequence, the figures for B12 were 6.1 nM, 8.3e-05 s⁻¹ and 14000 M⁻¹ s⁻¹.
Take B10: the Kd was determined as 42.5 nM, the koff was 0.0038 s⁻¹ and the kon is 91000 M⁻¹ s⁻¹.

Usually Kd stands for the constant that tells how readily two partners part at equilibrium. For orientation: koff means a measure of how fast the partners let go of each other. In general, kon refers to the second-order rate constant of association.
